# Assay results taken from US20130253037.
# Legend:
# [1] = target: 6-His-Aurora-A (recombinant, wild type, from Sf9 insect cells)
protein,measurement,setting,value
"6-His-LIMK2 (recombinant, E. coli) (protein) MSALAGEDVWRCPGCGDHIAPSQIWYRTVNETWHGSCFRCSECQDSLTNWYYEKDGKLYCPKDYWGKFGEFCHGCSLLMTGPFMVAGEFKYHPECFACMSCKVIIEDGDAYALVQHATLYCGKCHNEVVLAPMFERLSTESVQEQLPYSVTLISMPATTEGRRGFSVSVESACSNYATTVQVKEVNRMHISPNNRNAIHPGDRILEINGTPVRTLRVEEVEDAISQTSQTLQLLIEHDPVSQRLDQLRLEARLAPHMQNAGHPHALSTLDTKENLEGTLRRRSLRRSNSISKSPGPSSPKEPLLFSRDISRSESLRCSSSYSQQIFRPCDLIHGEVLGKGFFGQAIKVTHKATGKVMVMKELIRCDEETQKTFLTEVKVMRSLDHPNVLKFIGVLYKDKKLNLLTEYIEGGTLKDFLRSMDPFPWQQKVRFAKGIASGMAYLHSMCIIHRDLNSHNCLIKLDKTVVVADFGLSRLIVEERKRAPMEKATTKKRTLRKNDRKKRYTVVGNPYWMAPEMLNGKSYDETVDIFSFGIVLCEIIGQVYADPDCLPRTLDFGLNVKLFWEKFVPTDCPPAFFPLAAICCRLEPESRPAFSKLEDSFEALSLYLGELGIPLPAELEELDHTVSMQYGLTRDSPP","in vitro kinase assay, Aurora A (without TPX2) as putative LIMK2 substrate",[1],"when LIMK2 was incubated with Aurora A (without TPX2), Aurora A did not get phosphorylated"
same,"in vitro kinase assay, cofilin phosphorylation with [32P] ATP",6-His-cofilin,LIMK2 efficiently phosphorylated cofilin as expected (lane 3)
